# In article PMC10491678:
# Target: N-terminus His-tag cleaved rBPSL1038 (rBPSL1038-post-cleavage) (Burkholderia pseudomallei) (UniProt Q63W52)
# Test: SEC
substance,measurement,value
N-terminus His-tag cleaved rBPSL1038 (rBPSL1038-post-cleavage) (from UniProt Q63W52 1-88) (natural protein),stoichiometry N,2
